Data published in patent US7329737 (DYAX, dated 2008).

How the values were obtained:
[1] = target: T1, hK1 (human tissue kallikrein 1), recombinant (human, UniProt P06870 25-262); test: SPR
T1 construct: Expressed in P. pastoris from KLK1 cDNA and purified; enzymatically active; also called KLK1; Recombinant (Pichia) Kallikrein

[2] = target: T1, hK1 (human tissue kallikrein 1), …; test: cell-based or functional assay

Kd [1] [nM]	koff [1] [s⁻¹]	kon [1] [M⁻¹ s⁻¹]	IC50 (nM), inhibition of hK1 hydrolysis of Pro-Phe-Arg-AMC [2] [nM]	IC50 (nM), inhibition of hK1 enzyme activity [2] [nM]	Binder
2.41	0.00096	399000	–	–	M0134-B03 (Fab, V domains shown) VH: EVQLLESGGGLVQPGGSLRLSCAASGFTFSHYSMFWVRQAPGKGLEWVSSIYPSGGQTDYADSVKGRFTISRDNSKNTLYLQMNSLRAEDTAVYYCARRGLLWSFDSWGQGTLVTVSS VL: AQSALTQPPSASGSPGQSVTISCTGTSSDVGAYNYVSWYQQHPGKAPKLIIYEVNKRPSGVPDRFSASKSGNTASLTVSGLQAEDEADYYCNSYAGSNSLIFGGGTKLTVLG
2.23	0.00107	481000	–	–	M0136-E12 (Fab, V domains shown) VH: EVQLLESGGGLVQPGGSLRLSCAASGFTFSNYSMQWVRQAPGKGLEWVSSIGPSGGRTWYADSVKGRFTISRDNSKNTLYLQMNSLRAEDTAVYYCARVGVWYGMDVWGQGTTVTVSS VL: DIQMTQSPSSLSASVGDRVTITCRASHVINIDLGWYQQKPGKAPKLLIYGASHLQRGVPSRFSGSGSGTVFTLTISGLQPEDFATYYCLQDSFYPRTFGQGTRLEIKR
2.36	0.000734	311000	–	–	M0131-F09 (Fab, V domains shown) VH: EVQLLESGGGLVQPGGSLRLSCAASGFTFSHYVMQWVRQAPGKGLEWVSGIGPSGGSTTYADSVKGRFTISRDNSKNTLYLQMNSLRAEDTAVYYCARVGVWYGMDVWGQGTTVTVSS VL: DIQMTQSPATLSLSPGERATLSCRASQSVSSYLAWYQQKPGQAPRLLIYDASNRATGIPARFSGSGSGTDFTLTISSLEPEDFAVYYCQQRSNWLWTFGQGTKVEIKR
2.09	0.00069	330000	–	–	M0108-D11 (Fab, V domains shown) VH: EVQLLESGGGLVQPGGSLRLSCAASGFTFSWYVMTWVRQAPGKGLEWVSVIYPSGGATKYADSVKGRFTISRDNSKNTLYLQMNSLRAEDTAVYYCARRGAGGMDVWGQGTTVTVSS VL: AQSVLTQPASVSGSPGQSITISCTGTNTDVGGYNLVSWYQQHPGKAPKLIIYEVSNRPSGVSNRFSGSKSGNTASLTISGLQAEDEVDYYCGSYTSSSTHVFGSGTKVTVLG
–	–	–	4	–	M0098-G05 (Fab, V domains shown) VH: EVQLLESGGGLVQPGGSLRLSCAASGFTFSKYKMGWVRQAPGKGLEWVSYIRPSGGMTFYADSVKGRFTISRDNSKNTLYLQMNSLRAEDTAVYYCTREHYQASYSSSAWFRMVPAGAFDIWGQGTMVTVSS VL: DIQMTQSPSSLSASVGDRVTITCRASQTISRYLNWYQQKPGTAPKLLIYAASSLQSGVPSRFSGDGSGTDFTLTISSLQPEDFGIYFCQQSYSAPRTFGQGTKVEIKR
–	–	–	1	–	M0139-C02 (Fab, V domains shown) VH: EVQLLESGGGLVQPGGSLRLSCAASGFTFSYYKMHWVRQAPGKGLEWVSVIYPSGGKTTYADSVKGRFTISRDNSKNTLYLQMNSLRAEDTAVYYCTREHYQASYSSSAWFRMVPAGAFDIWGQGTMVTVSS VL: DIQMTQSPSSLSASVGDRVTITCRASQGIRRAWYQQKPGKPPKLLINDASSLESGVPSRFSGSGSGTDFTLTISSLQPEDFATYYCQQSYSTPPWTFGQGTKVEIKR
–	–	–	–	160	M0111-D11 (Fab, V domains shown) VH: EVQLLESGGGLVQPGGSLRLSCAASGFTFSWYAMMWVRQAPGKGLEWVSSIWPSGGHTKYADSVKGRFTISRDNSKNTLYLQMNSLRAEDTAVYYCATDQGYFWGQGTLVTVSS VL: DIQMTQSPATLSLSPGDRATLSCRASQRVSSTFLAWYQQRPGQAPRLVIFGTSSRATGIPDRFSGSGSGTDFTLTISRLEPEDFAVYYCHQYGSSPRTFGQGTKVEIKR
–	–	–	0.89	–	M0102-E09 (Fab, V domains shown) VH: EVQLLESGGGLVQPGGSLRLSCAASGFTFSLYLMEWVRQAPGKGLEWVSSIGSSGGATWYADSVKGRFTISRDNSKNTLYLQMNSLRAEDTAMYYCATDTSRVAGTRLRNYYYYYGMDVWGQGTTVTVSS VL: DIQMTQSPDSLSLSPGERATLSCRASQSISSSYLAWYQQTPGQAPRLLIYHASSRATGVPARFSGSGSGTDFTLTISSLEPEDFAVYYCQQRNNWPPSFTFGGGTKVETKR
–	–	–	5.1	–	M0106-G12 (Fab, V domains shown) VH: EVQLLESGGGLVQPGGSLRLSCAASGFTFSWYRMHWVRQAPGKGLEWVSSIWPSGGKTHYADSVKGRFTISRDNSKNTLYLQMNSLRAEDTAVYYCARALQYGSGSYFYAPKSYYYYGMDVWGQGTTVTVSS VL: DIQMTQSPSFVSASIGDRVTITCRASQSIGTLLNWYQHKPGTVPSLLIYGNLRGGVPARFSGSGSGTDFTLTISSLQPEDFATYYCQHDTFGGGTKVDIKR
1.71	0.000325	190000	–	–	M0138-A03 (Fab, V domains shown) VH: EVQLLESGGGLVQPGGSLRLSCAASGFTFSFYLMFWVRQAPGKGLEWVSGIYPSGGQTVYADSVKGRFTISRDNSKNTLYLQMNSLRAEDTAVYYCARAIGAGSSFWGQGTLVTVSS VL: DIQMTQSPSSVSASVGDRVTITCRASQGISSWLAWYQQKPGKAPKLLIYAASSLQSGVPSRFSGSGSGTDFTLTISSLQPEDFATYYCQQANSFPHTFGQGTKLEIKR
2.26	0.000397	176000	–	–	M0136-D07 (Fab, V domains shown) VH: EVQLLESGGGLVQPGGSLRLSCAASGFTFSPYKMGWVRQAPGKGLEWVSSIYPSGGVTTYADSVKGRFTISRDNSKNTLYLQMNSLRAEDTAVYYCTKNINLRYDILTGYFDIWGQGTTVTVSS VL: DIQMTQSPSSVSASVGDRVTITCRASQDIASWLAWYQQKPEKVPKLLIYAASSLQSGVPSRFSGSGSGTDFTLTINSLQPEDFATYYCQQANSFPFTFGPGTKVDFKR
2.26	0.00138	614000	–	–	M0138-E02 (Fab, V domains shown) VH: EVQLLESGGGLVQPGGSLRLSCAASGFTFSHYMMHWVRQAPGKGLEWVSGIGPSGGKTPYADSVKGRFTISRDNSKNTLYLQMNSLRAEDTAVYYCARVGVWYGMDVWGQGTTVTVSS VL: DIQMTQSPSSVSASVGDRVTITCRASQGISSWLVWYQQKPGKAPKLLIYAASSLQSGVPSRFSGSGSGTDFTLTISSLQPEDFATYYCQQAKTFPLTFGGGTKVEIKR
–	–	–	–	44	M0110-F08 (Fab, V domains shown) VH: EVQLLESGGGLVQPGGSLRLSCAASGFTFSNYVMYWVRQAPGKGLEWVSGIGPSGGFTTYADSVKGRFTISRDNSKNTLYLQMNSLRAEDTAVYYCTRDRYFGSGYYMAAYYYYGMDVWGQGTTVTVSS VL: DIQMTQSPGTLSLSPGERATLSCRASQSVVSNFLAWYQQKPGQAPRLLIYGASSRATGIPDRFSGSGSGTDFILTISRLEPEDFAVYYCQQYGSSPYSFGQGTKLEIKR
2.03	0.000396	195000	–	–	M0135-H01 (Fab, V domains shown) VH: EVQLLESGGGLVQPGGSLRLSCAASGFTFSAYLMAWVRQAPGKGLEWVSSIRPSGGETRYADSVKGRFTISRDNSKNTLYLQMNSLRAEDTAVYYCTRDQKGYPDSSSFRRYYYYYGMDVWGQGTTVTVSS VL: not shown
–	–	–	1.1	–	M0097-F03 (Fab, V domains shown) VH: EVQLLESGGGLVQPGGSLRLSCAASGFTFSNYLMYWVRQAPGKGLEWVSSIRPSGGNTLYADSVKGRFTISRDNSKNTLYLQMNSLRAEDTAVYYCRRGILTGYYWGYYYYMDVWGKGTTVTVSS VL: DIQMTQSPATLSVSPGGRATLSCRASQSVRKNVAWYQQKPGQPPRLLIYGASTRATGVPARFSGSGSGTEFTLTISRMQPEDFVVYHCQQYSSWPAFGQGTMVEINR
